The text below walks through data of paper PMC8282340 (2021).

Test in all cases: FP
For test [1], the target named is human BCL-2 fused to the N-terminal half of T7 RNAP (human).
For test [2], the target named is GST only (Schistosoma japonicum).
Test [3] concerns the target B4-2.
Test [4] concerns the target B3-1.
The target in test [5] is B2-1.
For test [6], the target named is B1-3.
Test [7] has as its target L3-1.
The target of test [8] is L3-3.
Test [9] has as its target T1, hsMCL-1 variant L1-1 (human, UniProt Q07820).
Test [10] addresses L4-3.
Test [11] addresses B4-2. The source holds these as a separate data set.
Test [12] addresses B3-1. The source holds these as a separate data set.
Test [13] deals with B2-1. This is another data set of the same source.
The target of test [14] is B1-3. The source holds these as a separate data set.
The target of test [15] is L3-1. This is another data set of the same source.
For test [16], the target named is L3-3. The source holds these as a separate data set.
The target of test [17] is T1, hsMCL-1 variant L1-1. The source holds these as a separate data set.
In test [18] the target is L4-3. The source holds these as a separate data set.

Read-outs that look alike come from different tables or passages of the source.

Chain of human BCL-2 fused to the N-terminal half of T7 RNAP (human) (chain, as listed by the source): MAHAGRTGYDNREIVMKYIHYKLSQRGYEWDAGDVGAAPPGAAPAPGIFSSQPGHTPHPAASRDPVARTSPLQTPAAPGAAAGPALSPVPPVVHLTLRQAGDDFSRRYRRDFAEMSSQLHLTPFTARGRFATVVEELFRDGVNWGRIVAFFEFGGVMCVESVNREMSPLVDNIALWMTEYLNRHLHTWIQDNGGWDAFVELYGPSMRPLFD

B1: fluorescent NOXA peptide (peptide)
chain: AELEVECATQLRRFGDKLNFRQKLL
HELM: PEPTIDE1{[O=C1OC2(c3ccc(O)cc3Oc3cc(O)ccc32)c2ccc(C(=O)[*:2])cc21].[O=C(CCCCCN[*:1])[*:2]].A.E.L.E.V.E.C.A.T.Q.L.R.R.F.G.D.K.L.N.F.R.Q.K.L.L.[am]}$$$$V2.0
SMILES: CC(C)C[C@H](NC(=O)[C@H](CC(C)C)NC(=O)[C@H](CCCCN)NC(=O)[C@H](CCC(N)=O)NC(=O)[C@H](CCCNC(=N)N)NC(=O)[C@H](Cc1ccccc1)NC(=O)[C@H](CC(N)=O)NC(=O)[C@H](CC(C)C)NC(=O)[C@H](CCCCN)NC(=O)[C@H](CC(=O)O)NC(=O)CNC(=O)[C@H](Cc1ccccc1)NC(=O)[C@H](CCCNC(=N)N)NC(=O)[C@H](CCCNC(=N)N)NC(=O)[C@H](CC(C)C)NC(=O)[C@H](CCC(N)=O)NC(=O)[C@@H](NC(=O)[C@H](C)NC(=O)[C@H](CS)NC(=O)[C@H](CCC(=O)O)NC(=O)[C@@H](NC(=O)[C@H](CCC(=O)O)NC(=O)[C@H](CC(C)C)NC(=O)[C@H](CCC(=O)O)NC(=O)[C@H](C)NC(=O)CCCCCNC(=O)c1ccc2c(c1)C(=O)OC21c2ccc(O)cc2Oc2cc(O)ccc21)C(C)C)[C@@H](C)O)C(N)=O
By Kd is commonly meant a measure of binding affinity in units of concentration. With B1, the Kd was 948 nM in test [1]; greater than 1000 nM in test [2]; 186 nM in test [3]; 53.4 nM in [4]; 340 nM in [5]; 137 nM in test [6]. In addition, the Kd is 949 nM in [7], greater than 1000 nM in test [8], 489 nM in test [9] and greater than 1000 nM in test [10].

B2: fluorescent BID peptide (peptide)
chain: QEDIIRNIARHLAQVGDSMDR
HELM: PEPTIDE1{[O=C1OC2(c3ccc(O)cc3Oc3cc(O)ccc32)c2ccc(C(=O)[*:2])cc21].[O=C(CCCCCN[*:1])[*:2]].Q.E.D.I.I.R.N.I.A.R.H.L.A.Q.V.G.D.S.M.D.R.[am]}$$$$V2.0
SMILES: CC[C@H](C)[C@H](NC(=O)[C@H](CC(N)=O)NC(=O)[C@H](CCCNC(=N)N)NC(=O)[C@@H](NC(=O)[C@@H](NC(=O)[C@H](CC(=O)O)NC(=O)[C@H](CCC(=O)O)NC(=O)[C@H](CCC(N)=O)NC(=O)CCCCCNC(=O)c1ccc2c(c1)C(=O)OC21c2ccc(O)cc2Oc2cc(O)ccc21)[C@@H](C)CC)[C@@H](C)CC)C(=O)N[C@@H](C)C(=O)N[C@@H](CCCNC(=N)N)C(=O)N[C@@H](Cc1c[nH]cn1)C(=O)N[C@@H](CC(C)C)C(=O)N[C@@H](C)C(=O)N[C@@H](CCC(N)=O)C(=O)N[C@H](C(=O)NCC(=O)N[C@@H](CC(=O)O)C(=O)N[C@@H](CO)C(=O)N[C@@H](CCSC)C(=O)N[C@@H](CC(=O)O)C(=O)N[C@@H](CCCNC(=N)N)C(N)=O)C(C)C
On to B2, for which the Kd in test [1] was 87.6 nM; in test [2] it was greater than 1000 nM; in test [11], 5.16 nM; in test [12], 33.4 nM; in test [13], 43.3 nM; in test [14], 7.21 nM. Further, the dissociation constant Kd is 25.3 nM in test [15], 9.29 nM in [16], 5.38 nM in test [17] and 18.7 nM in [18].
